Test results taken from IntAct's records for PubMed 16709668.

B1: "Peptide-N(4)-(N-acetyl-beta-glucosaminyl)asparagine amidase" (Mus musculus), Q9JI78 (parent)
chain: MASATLGSSSSSASPAVAELCQNTPETFLEASKLLLTYADNILRNPSDEKYRSIRIGNTAFSTRLLPVRGAVECLFEMGFEEGETHLIFPKKASVEQLQKIRDLIAIERSSRLDGSSKKVQFSQHPAAAKLPLEQSEDPAGLIRHSGNQTGQLPSLPSAPMVVGDSTILKVLQSNIQHVQLYENPVLQEKALTCIPVSELKRKAQEKLFRARKLDKGTNVSDEDFLLLELLHWFKEEFFRWVNNIVCSKCGGETRSRDEALLPNDDELKWGAKNVENHYCDACQLSNRFPRYNNPEKLLETRCGRCGEWANCFTLCCRALGFEARYVWDYTDHVWTEVYSPSQQRWLHCDACEDVCDKPLLYEIGWGKKLSYIIAFSKDEVVDVTWRYSCKHDEVMSRRTKVKEELLRETINGLNKQRQLSLSESRRKELLQRIIVELVEFISPKTPRPGELGGRVSGSLAWRVARGETGLERKEILFIPSENEKISKQFHLRYDIVRDRYIRVSDNNINISGWENGVWKMESIFRKVEKDWNMVYLARKEGSSFAYISWKFECGSAGLKVDTVSIRTSSQSFESGSVRWKLRSETAQVNLLGDKNLRSYNDFSGATEVTLEAELSRGDGDVAWQHTQLFRQSLNDSGENGLEIIITFNDL

Variants of: B1
Settings: with tera_mouse Vcp

effect of a mutation on the interaction | Variant
disrupting interaction | G79A;F80A
disrupting interaction | N41P
